Starred links: 1 amine or outer side, 2 acyl side, 3 side chain; linkers in the order of their positions; H or OH if unused. Positions of bridges follow the written chain, without caps; N, C: chain ends. Non-standard residues stand in square brackets, D forms with d. Primed or numbered codes have the meaning given here. PyrS2″ = (S)-3-amino-1-((pent-4-en-1-yloxy)carbonyl)pyrrolidine-3-carboxylic acid (stapling residue), C=CCCCOC(=O)N1CC[C@@](N[*:1])(C(=O)[*:2])C1; B5(16) = 2-amino-2-(pent-4-en-1-yl)hept-6-enoic acid = 2,2-bis(4-pentenyl)glycine (stitching residue), C=CCCCC(CCCC=C)(N[*:1])C(=O)[*:2]; B5(4) = 2,2-bis(4-pentenyl)glycine = 2-amino-2-(pent-4-en-1-yl)hept-6-enoic acid (stitching residue), C=CCCCC(CCCC=C)(N[*:1])C(=O)[*:2]; B5(20) = 2-amino-2-(pent-4-en-1-yl)hept-6-enoic acid = bis(4-pentenyl)glycine, stitching residue, C=CCCCC(CCCC=C)(N[*:1])C(=O)[*:2]; B5 = 2-amino-2-(pent-4-en-1-yl)hept-6-enoic acid, C=CCCCC(CCCC=C)(N[*:1])C(=O)[*:2]; Phe(2-CONH2) = NC(=O)c1ccccc1C[C@H](N)C(=O)O; Phe(2-Cl) = N[C@@H](Cc1ccccc1Cl)C(=O)O; Bta = N[C@@H](Cc1csc2ccccc12)C(=O)O; Lys(iPr) = CC(C)NCCCC[C@H](N)C(=O)O; αAllylPro = C=CC[C@@]1(C(=O)O)CCCN1; S8 = C=CCCCCCC[C@](C)(N)C(=O)O
T1: full-length beta-Catenin (Uniprot ID P35222) (Homo sapiens (Human), UniProt P35222 1-781)
T1 construct: also called bCat; B-Catenin
T1 sequence: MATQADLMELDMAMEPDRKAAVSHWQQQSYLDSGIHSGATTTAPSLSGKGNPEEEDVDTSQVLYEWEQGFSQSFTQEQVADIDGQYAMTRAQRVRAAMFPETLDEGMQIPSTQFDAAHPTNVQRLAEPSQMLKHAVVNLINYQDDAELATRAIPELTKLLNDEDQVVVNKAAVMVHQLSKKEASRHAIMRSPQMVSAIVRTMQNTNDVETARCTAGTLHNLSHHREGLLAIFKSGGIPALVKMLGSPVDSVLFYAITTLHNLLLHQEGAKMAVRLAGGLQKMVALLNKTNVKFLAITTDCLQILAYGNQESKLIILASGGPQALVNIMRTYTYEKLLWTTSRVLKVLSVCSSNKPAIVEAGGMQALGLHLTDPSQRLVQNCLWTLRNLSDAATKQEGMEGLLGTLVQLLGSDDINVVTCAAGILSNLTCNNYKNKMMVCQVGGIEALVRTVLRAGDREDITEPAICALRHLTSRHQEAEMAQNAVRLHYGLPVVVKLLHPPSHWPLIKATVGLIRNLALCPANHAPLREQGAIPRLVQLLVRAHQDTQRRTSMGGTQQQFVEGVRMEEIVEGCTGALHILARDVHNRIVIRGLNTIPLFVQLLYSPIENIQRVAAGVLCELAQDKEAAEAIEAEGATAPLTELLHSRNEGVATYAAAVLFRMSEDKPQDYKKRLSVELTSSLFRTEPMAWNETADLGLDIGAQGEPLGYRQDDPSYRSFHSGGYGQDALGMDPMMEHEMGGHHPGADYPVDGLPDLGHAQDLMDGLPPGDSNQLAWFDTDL

T2: full-length beta-Catenin (Uniprot ID P35222) (Homo sapiens (Human), UniProt P35222 2-781)
T2 construct: also called bCat; B-Catenin
T2 sequence: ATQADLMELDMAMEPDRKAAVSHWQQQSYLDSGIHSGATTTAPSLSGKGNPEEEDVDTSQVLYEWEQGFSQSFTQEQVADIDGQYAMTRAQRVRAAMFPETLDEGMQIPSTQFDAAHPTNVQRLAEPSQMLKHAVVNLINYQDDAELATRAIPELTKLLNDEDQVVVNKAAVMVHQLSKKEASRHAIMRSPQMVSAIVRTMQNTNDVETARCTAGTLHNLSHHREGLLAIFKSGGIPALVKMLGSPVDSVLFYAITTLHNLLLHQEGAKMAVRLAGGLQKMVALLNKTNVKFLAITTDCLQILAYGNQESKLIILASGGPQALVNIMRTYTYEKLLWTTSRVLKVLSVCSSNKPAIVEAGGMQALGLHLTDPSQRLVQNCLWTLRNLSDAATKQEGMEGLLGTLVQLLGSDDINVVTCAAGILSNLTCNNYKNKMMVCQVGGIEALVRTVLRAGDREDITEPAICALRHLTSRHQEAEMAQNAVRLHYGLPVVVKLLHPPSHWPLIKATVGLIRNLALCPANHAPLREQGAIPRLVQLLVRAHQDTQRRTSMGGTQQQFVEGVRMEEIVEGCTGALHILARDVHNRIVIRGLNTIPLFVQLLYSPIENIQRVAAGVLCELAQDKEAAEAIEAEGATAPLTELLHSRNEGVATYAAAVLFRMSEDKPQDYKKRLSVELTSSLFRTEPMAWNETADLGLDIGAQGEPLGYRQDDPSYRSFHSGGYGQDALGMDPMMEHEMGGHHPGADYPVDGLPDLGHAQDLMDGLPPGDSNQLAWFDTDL

T3: full-length beta-Catenin (Uniprot ID P35222) (Homo sapiens (Human), UniProt P35222 2-781)
T3 construct: also called bCat; B-Catenin
T3 sequence: T2 sequence

T4: full-length beta-Catenin (Uniprot ID P35222) (Homo sapiens (Human), UniProt P35222 1-781)
T4 construct: The assay text says full-length; also called bCat; B-Catenin
T4 sequence: T1 sequence

B1: I-508 (peptide)
peptide: Ac-[αAllylPro]DA[B5(20)]DEAAFQ[S8]F[Bta]T-NH2
modifications: staple 1-4, 4-11; also: later-eluting HPLC peak of staple isomers
B2: I-527 (peptide)
peptide: XDIXDEAAFQXFXQ
modifications: not fully specified; Ac-PL3-Asp-Ile-B5-Asp-Glu-Ala-Ala-Phe-Gln-S8-2OMeF-BztA-Gln-NH2; stapled by olefin metathesis (PL3-B5 and B5-S8)
B3: I-513 (peptide)
peptide: Ac-[αAllylPro]DA[B5(20)]DEAAFN[S8][Phe(2-CONH2)][Bta]H-NH2
modifications: staple 1-4, 4-11
notes: Stapled peptide composition
B4: I-1155 (peptide)
peptide: Ac-[αAllylPro]DF[B5(16)]DDLLFS[PyrS2″][Phe(2-Cl)][Bta]Q-NH2
modifications: staple 1-4, 4-11
notes: Stapled (stitched) peptide composition; olefin isomer not specified
B5: I-1154 (peptide)
peptide: Ac-[αAllylPro]DF[B5(16)]DDALFS[PyrS2″][Phe(2-Cl)][Bta]Q-NH2
modifications: staple 1-4, 4-11
notes: as for B4
B6: I-1580 (peptide)
peptide: Ac-[αAllylPro]NF[B5(4)]DT[Lys(iPr)]AFL[PyrS2″]F[Bta]Q-NH2
modifications: staple 1-4, 4-11
B7: I-1581 (peptide)
peptide: Ac-[αAllylPro]NW[B5(4)]DT[Lys(iPr)]AFL[PyrS2″]F[Bta]Q-NH2
modifications: staple 1-4, 4-11
B8: I-617 (peptide)
peptide: XDLXDEAAFTXFXH
modifications: not fully specified; N-terminal Ac; PL3 (pos 1), B5 (pos 4), S8 (pos 11) stapled (PL3-B5 and B5-S8); BztA (pos 13); C-terminal NH2
notes: Stapled peptide; also called Ac-PL3-Asp-Leu-B5-Asp-Glu-Ala-Ala-Phe-Thr-S8-Phe-BztA-His-NH2
B9: I-622 (peptide)
peptide: XDLXDEAAFTXFXQ
modifications: not fully specified; N-terminal Ac; PL3 (pos 1), B5 (pos 4), S8 (pos 11) stapled (PL3-B5 and B5-S8); BztA (pos 13); C-terminal NH2
notes: Stapled peptide; also called Ac-PL3-Asp-Leu-B5-Asp-Glu-Ala-Ala-Phe-Thr-S8-Phe-BztA-Gln-NH2
B10: I-623 (peptide)
peptide: XDLXDEAAFTXFXQ
modifications: not fully specified; N-terminal Ac; PL3 (pos 1), B5 (pos 4), S8 (pos 11) stapled (PL3-B5 and B5-S8); BztA (pos 13); C-terminal NH2
notes: as for B9
B11: I-618 (peptide)
peptide: XDLXDEAAFTXFXH
modifications: not fully specified; N-terminal Ac; PL3 (pos 1), B5 (pos 4), S8 (pos 11) stapled (PL3-B5 and B5-S8); BztA (pos 13); C-terminal NH2
notes: as for B8
B12: I-602 (peptide)
peptide: XDIXDEAAFQXFXQ
modifications: N-terminal 2PyPrpc cap; PL3 (pos 1), B5 (pos 4), S8 (pos 11) stapled (PL3-B5 and B5-S8); BztA (pos 13); C-terminal NH2
notes: Stapled peptide; also called 2PyPrpc-PL3-Asp-Ile-B5-Asp-Glu-Ala-Ala-Phe-Gln-S8-Phe-BztA-Gln-NH2
B13: I-601 (peptide)
peptide: XDIXDEAAFQXFXQ
modifications: N-terminal Bnc cap; PL3 (pos 1), B5 (pos 4), S8 (pos 11) stapled (PL3-B5 and B5-S8, olefin metathesis); BztA (pos 13); C-terminal NH2
notes: Stapled peptide; also called Bnc-PL3-Asp-Ile-B5-Asp-Glu-Ala-Ala-Phe-Gln-S8-Phe-BztA-Gln-NH2
B14: I-603 (peptide)
peptide: Ac-[αAllylPro]DI[B5]DQAAFQ[S8]F[Bta]Q-NH2
modifications: staple 1-4, 4-11
notes: Stapled peptide; also called Ac-PL3-Asp-Ile-B5-Asp-Gln-Ala-Ala-Phe-Gln-S8-Phe-BztA-Gln-NH2
B15: I-613 (peptide)
peptide: XDIXDRAAFQXFXQ
modifications: not fully specified; N-terminal Ac; PL3 (pos 1), B5 (pos 4), S8 (pos 11) stapled (PL3-B5 and B5-S8); BztA (pos 13); C-terminal NH2
notes: Stapled peptide; also called Ac-PL3-Asp-Ile-B5-Asp-Arg-Ala-Ala-Phe-Gln-S8-Phe-BztA-Gln-NH2
B16: I-614 (peptide)
peptide: XDIXDRAAFQXFXQ
modifications: not fully specified; N-terminal Ac; PL3 (pos 1), B5 (pos 4), S8 (pos 11) stapled (PL3-B5 and B5-S8); BztA (pos 13); C-terminal NH2
notes: as for B15

Target: T1, full-length beta-Catenin (Uniprot ID …)
Assay: FP competition: full-length beta-catenin 10 nM + 5FAM-TCF4(10-53) 10 nM
Method: (§1) The plate was incubated protected from light for 60 minutes at 20° C. prior to read. Reads were performed on a CLARIOstar plate reader (BMG Labtech) in duplicate, and data were fitted to a 1:1 binding model with hill slope using an in-house script. All provided concentrations are final concentrations.

IC50 [nM]	Binder
73	B1
98	B2
143	B3

Target: T2, full-length beta-Catenin (Uniprot ID …)
Assay: fluorescence polarization competition vs 5FAM-TCF4(10-53) on full-length beta-catenin
Method: as §1

IC50 [nM]	Binder
60	B4
45	B5

Target: T3, full-length beta-Catenin (Uniprot ID …)
Assay: fluorescence polarization competition; full-length beta-catenin, 5FAM-TCF4(10-53) probe as competitor
Method: as §1

IC50 [nM]	Binder
1430	B6
10000	B7

Target: T4, full-length beta-Catenin (Uniprot ID …)
Assay: fluorescence polarization competition; full-length beta-catenin with 5FAM-TCF4(10-53) probe as competitor
Outline: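 Fluorescence polarization was read in duplicate after the plate sat 60 minutes at 20° C. shielded from light. Values come from fitting to a 1:1 binding model with hill slope.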

IC50 [nM]	Binder
253	B8
230	B9
103	B10
135	B11
3150	B12
419	B13
392	B14
1630	B15
1140	B16

— US20240116985A1 (published 2024)
